Data taken from patent publication US20250360220A1, “REGULATION OF TAU USING PROTEIN-LIKE POLYMERS AND USES THEREOF” (NORTHWESTERN UNIVERSITY, priority 2022, published 2025).

Target: T1, K18 Tau (Homo sapiens, UniProt P10636)
T1 construct: K18 Tau was first expressed, collected, and purified; His tag (cleaved yes); made in house
Test: Tau Kinetics Thioflavin T plate reader assay
Type: biochemical
Conditions: 1 μM PLP/Pep; Avg P amplitude divided by Avg Tau amplitude x 100
Description: Tau Kinetics Thioflavin T Plate Reader Assay Protocol: First, controls and the effects of varying concentrations of K18 Tau were examined (FIG. 24). In FIG. 24, 1X Tau refers to 10 μM K18 Tau final concentration in the well with 100 μl total volume (i.e., 0.5× Tau refers to 5 μM K18 Tau and 2× Tau refers to 20 μM K18 Tau). Before PLPs were added to K18 Tau, the concentration at which the mimetic aggregative polymers would not activate Thioflavin T was evaluated. Based on the results depicted in FIG. 25, a PLP concentration of 1 μM was selected for further experimentations. […] Given the goal to investigate effects of the PLPs, it was determined that too high of a concentration could easily be adjusted, whereas too low of a concentration could result in a false negative with respect to impact.
PLPs incorporating SEQ ID: 4 (“TP4”), SEQ ID: 2 (“TP7”), or SEQ ID: 10 (“TP12”) as peptide sidechains were tested. The PLPs, K18 Tau (10 μM) and Thio T (Sigma) at a final concentration of 10 μM was added, and aggregation was induced by the addition of a freshly prepared heparin sodium salt solution (Santa Cruz) at a final concentration of 44 μg/ml. For non-induced controls, assay buffer was added in place of heparin solution to a final volume of 100 μl per well. Aggregation reactions were carried out at 37° C. with continuous shaking and monitored via ThT fluorescence (excitation, 444 nm; emission, 485 nm; cutoff, 480 nm) in a Spectramax M5 microplate reader (Molecular Devices). Readings were taken every 5 min for a minimum of 24 h.
Table C. Summary of results depicted in FIGS. 26, 28, and 29 in the event the graphical representations are difficult to ascertain. Values are rounded to the nearest whole number. Tau 10 hr refers to the average amplitude (fluorescent intensity readout) of an n=6 of the control Tau (meaning no peptide or polymer added, just heparin, thioflavin T, and PBS) trace at 10 hour. The same applies to Tau 15 hr and Tau 20 hr. Avg Tau amplitude refers to the average of the amplitudes at 10, 15, and 20 hr in the previous columns. As Tau is the control for each individual plate, and these readings were done on three separate plates, there are 3 different sets of average amplitudes. Similar to the aforementioned, PLP or Pep 10 hr refers to the average amplitude (n=6 for PLP and n=3 for peptide) of the Tau trace treated with that compound at 10 hours. Avg P amplitude refers to the average of the amplitude at the 3 times, or the average of the 3 previous columns. PLP or Pep/Tau % is the result of dividing the Avg P amplitude by Avg Tau amplitude and multiplying by 100. % amp change refers to the change in amplitude given by subtracting Tau average amplitude from P average amplitude and dividing by Tau average amplitude and multiplying by 100.

T1 sequence (P10636 561-685 limits assumed): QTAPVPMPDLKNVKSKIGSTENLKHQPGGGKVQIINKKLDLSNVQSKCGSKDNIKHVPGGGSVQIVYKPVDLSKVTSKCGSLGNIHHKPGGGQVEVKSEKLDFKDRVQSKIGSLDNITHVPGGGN

Q: Which “PLP or Pep/Tau %” value does the source give for DRVQIVYKRR [P7] here?
A: The value was 135%.

Q: With VQPINK [P12] as the substance, how does the “PLP or Pep/Tau %” value read?
A: The value was 182%.

Q: With VQIINKRR [P4] as the substance, how does the “PLP or Pep/Tau %” value read?
A: The value was 177%.

Same assay, conditions: 1 μM PLP/Pep; K18 Tau 10 μM, heparin, thioflavin T, PBS; 10 hr

Q: With DRVQIVYKRR [P7] as the substance, how does the “PLP or Pep 10 hr (average amplitude, fluorescent intensity readout, of the Tau trace treated with that compound)” value (shortened to “PLP or Pep 10 hr”) read?
A: The value was 417.

Q: Which “PLP or Pep 10 hr” value does the source give for VQPINK [P12] here?
A: The value was 605.

Q: For VQIINKRR [P4], which “PLP or Pep 10 hr” value is on record?
A: Its value is 588.

Same assay, conditions: 1 μM PLP/Pep; K18 Tau 10 μM, heparin, thioflavin T, PBS; 15 hr

Q: Which “PLP or Pep 15 hr (average amplitude)” value does the source give for DRVQIVYKRR [P7] here?
A: Its value is 411.

Q: With VQPINK [P12] as the substance, how does the “PLP or Pep 15 hr (average amplitude)” value read?
A: Its value is 555.

Q: With VQIINKRR [P4] as the substance, how does the “PLP or Pep 15 hr (average amplitude)” value read?
A: The value was 558.

Same assay, conditions: 1 μM PLP/Pep; K18 Tau 10 μM, heparin, thioflavin T, PBS; 20 hr

Q: Which “PLP or Pep 20 hr (average amplitude)” value does the source give for DRVQIVYKRR [P7] here?
A: The value was 545.

Q: With VQPINK [P12] as the substance, how does the “PLP or Pep 20 hr (average amplitude)” value read?
A: Its value is 693.

Q: Which “PLP or Pep 20 hr (average amplitude)” value does the source give for VQIINKRR [P4] here?
A: The value was 657.

Same assay, conditions: 1 μM PLP/Pep; average of the amplitudes at 10, 15 and 20 hr

Q: For DRVQIVYKRR [P7], which “Avg P Amplitude” value is on record?
A: Its value is 458.

Q: With VQPINK [P12] as the substance, how does the “Avg P Amplitude” value read?
A: Its value is 618.

Q: Which “Avg P Amplitude” value does the source give for VQIINKRR [P4] here?
A: Its value is 601.

Same assay, conditions: 1 μM PLP/Pep; change in amplitude relative to control Tau

Q: Which “% amp change” value does the source give for DRVQIVYKRR [P7] here?
A: Its value is 11%.

Q: Which “% amp change” value does the source give for VQPINK [P12] here?
A: Its value is 50%.

Q: Which “% amp change” value does the source give for VQIINKRR [P4] here?
A: The value was 46%.

Same assay, conditions: 10 μM PLP/Pep; Avg P amplitude divided by Avg Tau amplitude x 100

Q: With DRVQIVYKRR [P7] as the substance, how does the “PLP or Pep/Tau %” value read?
A: The value was 126%.

Q: With VQPINK [P12] as the substance, how does the “PLP or Pep/Tau %” value read?
A: Its value is 140%.

Q: Which “PLP or Pep/Tau %” value does the source give for VQIINKRR [P4] here?
A: The value was 129%.

Same assay, conditions: 10 μM PLP/Pep; K18 Tau 10 μM, heparin, thioflavin T, PBS; 10 hr

Q: With DRVQIVYKRR [P7] as the substance, how does the “PLP or Pep 10 hr” value read?
A: Its value is 395.

Q: For VQPINK [P12], which “PLP or Pep 10 hr” value is on record?
A: The value was 584.

Q: Which “PLP or Pep 10 hr” value does the source give for VQIINKRR [P4] here?
A: The value was 417.

Same assay, conditions: 10 μM PLP/Pep; K18 Tau 10 μM, heparin, thioflavin T, PBS; 15 hr

Q: Which “PLP or Pep 15 hr (average amplitude)” value does the source give for DRVQIVYKRR [P7] here?
A: Its value is 448.

Q: With VQPINK [P12] as the substance, how does the “PLP or Pep 15 hr (average amplitude)” value read?
A: Its value is 413.

Q: Which “PLP or Pep 15 hr (average amplitude)” value does the source give for VQIINKRR [P4] here?
A: The value was 497.

Same assay, conditions: 10 μM PLP/Pep; K18 Tau 10 μM, heparin, thioflavin T, PBS; 20 hr

Q: For DRVQIVYKRR [P7], which “PLP or Pep 20 hr (average amplitude)” value is on record?
A: Its value is 438.

Q: For VQPINK [P12], which “PLP or Pep 20 hr (average amplitude)” value is on record?
A: Its value is 424.

Q: For VQIINKRR [P4], which “PLP or Pep 20 hr (average amplitude)” value is on record?
A: The value was 395.

Same assay, conditions: 10 μM PLP/Pep; average of the amplitudes at 10, 15 and 20 hr

Q: With DRVQIVYKRR [P7] as the substance, how does the “Avg P Amplitude” value read?
A: Its value is 427.

Q: For VQPINK [P12], which “Avg P Amplitude” value is on record?
A: The value was 474.

Q: For VQIINKRR [P4], which “Avg P Amplitude” value is on record?
A: Its value is 436.

Same assay, conditions: 10 μM PLP/Pep; change in amplitude relative to control Tau

Q: With DRVQIVYKRR [P7] as the substance, how does the “% amp change” value read?
A: The value was 4%.

Q: With VQPINK [P12] as the substance, how does the “% amp change” value read?
A: The value was 15%.

Q: For VQIINKRR [P4], which “% amp change” value is on record?
A: Its value is 6%.

Test system: not listed separately
Test: Circular dichroism
Type: physicochemical
Conditions: before and after addition of heparin; 37° C.
Description: The proteomimetic similarities were further investigated using circular dichroism. Samples tested included K18 Tau, PLPs having SEQ ID: 4, SEQ ID: 2, and SEQ ID: 10, as well as said PLPs with K18 Tau. Each of these samples were dissolved in Tris buffer (10 mM Tris, 50 mM NaF, 0.5 mM dithiothreitol) and pH was adjusted to 7.4. Samples were tested with and without the addition of heparin. For samples containing heparin, samples were incubated in the presence of 10 μM heparin sodium salt for 24 hours. Polymers and peptides were run at 37° C., at a concentration of 3 mg/10 ml and K18 Tau was run at 10 uM. Parameters were: 1 mm quartz cuvette, continuous scan at 10 nm/min over 260 to 200 nm, 3 acquisitions averaged for one trace.

Q: Which “CD conformation of free peptides” value does the source give for DRVQIVYKRR [P7] here?
A: The value was “beta sheet formation”.

Q: With VQPINK [P12] as the substance, how does the “CD conformation of free peptides” value read?
A: Its value is “beta sheet formation”.

Q: For VQIINKRR [P4], which “CD conformation of free peptides” value is on record?
A: Its value is “beta sheet formation”.
